# Test results reported in US10894811B2, “Peptide inhibitors of calcium channels” (The University of North Carolina at Chapel Hill, priority 2016, dated 2021).
# “Also recorded” adds a separate entry of the source.
# B1: SPLUNC1: Short palate, lung and nasal epithelium clone 1, recombinant full length protein (protein, listed as Homo sapiens)
# chain: MFQTGGLIVFYGLLAQTMAQFGGLPVPLDQTLPLNVNPALPLSPTGLAGSLTNALSNGLLSGGLLGILENLPLLDILKPGGGTSGGLLGGLLGKVTSVIPGLNNIIDIKVTDPQLLELGLVQSPDGHRLYVTIPLGIKLQVNTPLVGASLLRLAVKLDITAEILAVRDKQERIHLVLGDCTHSPGSLQISLLDGLGPLPIQGLLDSLTGILNKVLPELVQGNVCPLVNEVLRGLDITLVHDIVNMLIHGLQFVIKV
# Columns and labels:
# tracheal rings = assay: Myography of murine tracheal rings (ex vivo contraction); set-up: species or system mouse; conditions: pretreatment with recombinant SPLUNC1 protein for 1 h prior to agonist addition
# Procedure: Myography of Murine Tracheal Rings: Tracheas were excised from 8-week old SPLUNC1 WT and KO mice. After removing excessive connecting tissue, the trachea was cut into ˜4-mm rings, mounted on a DMT 620M myography apparatus and allowed to rest in modified Ringer's solution (119 mM NaCl, 4.7 mM KCl, 1.17 mM MgSO4, 1.18 mM KH2PO4, 2.5 mM CaCl2, 25 mM NaHCO3, 0.027 mM EDTA, 5.5 mM glucose) with continuous oxygenation (95% O2/5% CO2) at 37° C. for 20 min with no applied tension. Optimal passive tension (1 mN) was then applied to the rings. The baseline force was then recorded after stable tension was achieved. The induced contractile force of each ring was assessed by measuring contraction stimulated by 60 mM KCl or […] Ach (unless indicated otherwise), respectively.
# [1] = tested on: myosin light chain (MLC) phosphorylation; assay: Immunoblot of phosphorylated myosin light chain in ASMCs; assay type: cell-based, human; conditions: basal and Ach-induced; pre-treatment with SPLUNC1
# Procedure: Antibodies, immunoprecipitation, and immunoblot analysis: Rabbit anti-Orai1, anti-HA epitope (Santa Cruz), anti-GFP, anti-phospho-myosin light chain, anti-total myosin light chain, anti-GAPDH (glyceraldehyde-3-phosphate dehydrogenase) (Cell Signaling Technology); mouse anti-V5 epitope (Life Technologies), were purchased from commercial sources. To detect protein expression in total cell lysates, cells were lysed in Pierce® IP lysis buffer with 25 mM Tris-HCl pH 7.4, 150 mM NaCl, 1% NP-40, 1 mM EDTA, 5% glycerol, followed by SDS-polyacrylamide electrophoresis and immunoblot.
# hASMCs = assay: Calcium imaging using fura-2 (thapsigargin-induced Ca2+ signaling); assay type: cell-based, human
# Procedure: Calcium imaging: Calcium imaging using fura-2 was adapted from a previous published protocol with minor modifications (Sheridan et al., J. Biol. Chem. 288:33509 (2013)). Briefly, hASMCs were loaded with 2 μM fura-2 AM (Invitrogen) and serosal media from HBEC cultures or recombinant SPLUNC1 at 37° C. for 1 h. Cultures were washed with a standard Ringer's solution (101 mM NaCl, 12 mM NaHCO3, 1.2 mM MgCl2, 1.2 mM CaCl2, […], 24 mM HEPES, 10 mM glucose, pH 7.4) or with Ca^2+-free Ringer's solution as indicated. Cultures were then placed in the Ringer's solution, and images were collected with a 40×1.4 NA oil objective on a Nikon Ti-S inverted microscope. Fura-2 fluorescence was acquired alternately at 340 and 380 nm (emission >450 nm) using LUDL filter wheels, obtained with an Orca FLASH 4.0 CMOS camera (Hammamatsu), and controlled with HCImageLive software. Cell bodies were identified as individual regions of interest (ROIs). Background subtraction was performed using a region without the cell. Signals were converted to relative changes (F/F0) where F0 was the ratio of the average fluorescent intensity (340/380) of ROIs at 0 time point. A total of 20 cells/coverslip were recorded. ΔF/F0 represents average peak fluorescent intensity changes of three independent experiments.
# ASMC plasma membranes = assay: SPLUNC1 binding to ASMCs after Orai1 shRNA (surface biotinylation, fluorescent SPLUNC1 binding assay); set-up: species or system human; conditions: Orai1 shRNA knockdown vs scrambled control, 72 h post transfection
# Procedure: Short hairpin RNA (shRNA) plasmid against Orai1 and scrambled control shRNA plasmid were purchased from Sigma Aldrich and published previously (Sheridan et al., J. Biol. Chem. 288:33509 (2013)). Transfections of all plasmid DNA and shRNA were performed using Lipofectamine 2000 reagent (Life Technologies) according to the manufacturer's instructions.
# Fluorescent SPLUNC1 binding assay: Human ASMCs were transfected with scrambled control shRNA and Orai1 shRNA respectively. 72 h post transfection, cells were treated with or without SPLUNC1-DyLight 633 for 1 h, then washed for 5 times with ice-cold Ringer's solution. ASMC-bounded SPLUNC1-Dylight 633 was detected by fluorescent plate reader (Tecan). Cells were also stained with calcein AM (Life Technologies) as cell number control. Relative fluorescent intensity was calculated by normalizing fluorescent intensity at 658 nm to 526 nm.
# Surface biotinylation: hASMCs were treated with or without SPLUNC1 for 4 h. Cells were then washed with prechilled PBS^++ (phosphate buffered saline supplemented with 1 mM CaCl2 and 1 mM MgCl2), and then labeled with 0.5 mg/ml sulfo-NHS-biotin (Thermo) in borate buffer (85 mM NaCl, 4 mM KCl, 15 mM Na2B4O7, pH 9.0) while tumbling gently for 30 min on ice. hASMCs were incubated in PBS^++ buffer supplemented with 10% FBS for 20 min at 4° C. to quench free biotin. […]
# Orai1 = Orai1 (Homo sapiens, UniProt Q96D31); assay: Surface labeling and ground state depletion super resolution microscopy; assay type: cell-based; set-up: expressed in transfected cells; conditions: ASMC plasma membranes, after 1 h incubation
# Procedure: Surface labeling and super resolution microscopy: Human ASMs were grown on 22×22 mm^2 glass coverslips and transfected with the HA-Orai1. 24 h after transfection, cells were fixed with 4% paraformaldehyde (PFA) in PBS, followed by surface labeling with mouse anti-HA antibody (BioLegend) and Alexa 488 goat anti mouse antibody (Life Technologies) at 4° C. After washing with ice cold PBS for five times, cells were incubated with 5 μM SPLUNC1-DyLight 594 for 1 h at 4° C. prior to imaging.
# Prior to mounting, 90 μl of oxygen depleting medium, β-Mercaptoethylamine (MEA) was added to the cavity of depression slides. Coverslips were then mounted on the depression slides and sealed with twinsil (Picodent). Super resolution images were captured with a commercial LEICA GSD super-resolution microscope. Ground state depletion (GSD) was performed using 488 nm and 642 nm m solid-state lasers. Samples were excited using 488 nm and 642 nm lasers and sample acquisition was increased with back-pumping using the 405 nm laser as per the manufacturer's instructions. The microscope was fitted with a 160× oil-immersion objective lens.
# Sequence of Orai1 (Q96D31 whole entry): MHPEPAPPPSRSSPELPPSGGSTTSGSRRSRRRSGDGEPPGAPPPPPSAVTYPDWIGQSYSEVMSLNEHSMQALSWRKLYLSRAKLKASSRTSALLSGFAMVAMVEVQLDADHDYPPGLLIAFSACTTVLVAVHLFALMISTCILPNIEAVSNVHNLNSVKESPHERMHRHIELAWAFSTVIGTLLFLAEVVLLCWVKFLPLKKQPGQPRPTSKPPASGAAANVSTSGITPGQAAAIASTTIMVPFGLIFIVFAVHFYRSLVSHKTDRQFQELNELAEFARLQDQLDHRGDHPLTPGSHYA
molecule,measurement,setting,value
B1,contraction (contractile force) of tracheal rings,tracheal rings,suppressed contraction
same,MLC phosphorylation,[1],decreased both basal and induced MLC phosphorylation; also recorded: suppressing myosin light chain (MLC) phosphorylation; also recorded: decreases MLC phosphorylation in dose dependent-manners
same,ability of SPLUNC1 to inhibit Ca2+ signaling,"hASMCs; ASMC with Orai1 knocked down by shRNA, TG",lost
same,"ability to suppress Ca2+ signaling, SPLUNC1 mutants/peptides",hASMCs; ASMCs pre-incubated with truncated SPLUNC1 peptides (FIG. 4H),Inhibition was not different
same,SR Ca2+ release,"hASMCs; TG without extracellular Ca2+ (EGTA), pre-treatment with SPLUNC1",no effect
same,thapsigargin (TG)-induced Ca2+ flux (peak fura-2 ratio change),"hASMCs; human ASMCs, co-incubated 1 h",significantly reduced; also recorded: inhibits TG induced cytosolic Ca^2+ increases in a dose-dependent manner; also recorded: suppresses cytosolic Ca^2+ elevation in the presence of TG
same,SOCE (store operated Ca2+ influx),"hASMCs; reintroduction of extracellular Ca2+ after TG, pre-treatment with SPLUNC1",significantly suppressed; also recorded: blocks store operated Ca^2+ influx in ASMCs
same,SPLUNC1 binding to ASMC plasma membranes,ASMC plasma membranes,decreased; also recorded: decreases SPLUNC1 binding to the ASMC membrane; also recorded: decreases fluorescent SPLUNC1 binding to ASMCs
same,co-localization of SPLUNC1 and Orai1,Orai1,co-localize in ASMC plasma membranes
